Data as given in paper PMC9570017, “Unorthodox PCNA Binding by Chromatin Assembly Factor 1” (International Journal of Molecular Sciences, 2022).
No end group written: not given here.

Tests used:
human PCNA = target: T1, human PCNA (Homo sapiens, UniProt P12004); experiment: Isothermal titration calorimetry (ITC), PIP peptide titrated into wild-type PCNA; format: binding
T1 construct: His6 (C); made in house; host or cells: E. coli Codon Plus BL21(DE3) pLysS
Source text: The wild-type and R426D peptides were expressed as GST fusions in E. coli, purified to homogeneity (see Materials and Methods) and used in isothermal titration calorimetry (ITC) assays with human PCNA purified from E. coli.
Recombinant PCNA, PCNA-Y250I, and the PIP peptides (wild-type, R426D) were expressed and purified as described in the Supplementary Materials section—“Expression and purification of recombinant proteins”. The proteins were dialyzed against three 4-litre changes of ITC buffer containing 10 mM sodium phosphate, pH 7.0, and 10 mM NaCl at 4 °C overnight. The concentrations of PCNA and PIP peptides were determined by measuring tyrosine absorption at A280nm. ITC titrations of peptides into PCNA were performed at 23 °C in the ITC buffer (10 mM sodium phosphate, pH 7.0, 10 mM NaCl) using a MicroCal VP-ITC system. The concentrations of injected wild-type and mutant PIP in the syringe varied from 200 to 500 μM, whereas PCNA in the ITC sample cell varied depending on the experiment from 20 to 50 μM PCNA monomer. The protein and peptide samples were degassed before the ITC run. Data analysis was performed using the MicroCal Origin 7.0 software (OriginLab Corporation, Northampton, MA, USA) and all experiments fit the single binding site model.
Supplementary Materials-Expression and purification of recombinant proteins
S1. Expression and purification of GST-PIP fusion proteins in Escherichia coli Wild-type p150 PIP and R426D peptides were constructed as GST-fusion proteins with a tyrosine at the C-terminus of the peptide. The C-terminal tyrosine was added to aid in peptide detection during the purification by measuring the absorbance at 280 nm. The DNA fragments encoding the GST fusion proteins were inserted into a pGEX-TEV vector, which is essentially a modified pGEX-2T vector where the thrombin cleavage site was replaced with a TEV cleavage site. The pGEX-TEV plasmid was digested with BamHI and EcoRI and ligated to DNA fragments encoding either the p150 PIP wild-type and R426D. The plasmids pGEX-TEV-PIP wild type and pGEX-TEV-PIP R426D were con-firmed by DNA sequencing and then expressed in Escherichia coli host strain TOPP2 (Strat-agene) with 100 µg/ml ampicillin to saturation at 37°C. The next day, the saturated cells were diluted to 0.05 OD measured at A600 nm and the cells were grown at 37°C until the cells reach the mid-exponential phase of 0.6-0.8 at OD A600 nm. The cells were then in-duced with 1 mM isopropyl-D-thiogalactopyranoside (IPTG) for 4 h. Eight litres of cell culture were grown each for the wild-type and R426D mutant. The cells were then har-vested by centrifugation in an Avanti J-26XP high-performance centrifuge from Beckman Coulter with a fixed angle rotor (JLA-8.1000) at 9000 x g for 30 min at 4°C. The pellet from 1 litre cells equivalent was lysed in 10 ml of lysis buffer containing 20 mM Tris pH 7.5, 1 M NaCl, 0.2 mM EDTA, 1 mM DTT, 50 µg/ml lysozyme, 1 mM AEBSF and one tablet of cOmplete™ Mini EDTA-free Protease Inhibitor Cocktail Tablets (Roche). The cell pellet was sonicated in the lysis buffer on ice, at power output level 4 with 10 seconds pulse on and 30 seconds off at 6 watts using a Misonix 3000 Ultrasonic cell disruptor and wider probe. The lysate was clarified by centrifugation for 30 min in an Avanti J-26XP with a fixed angle rotor 25.50 at 30966 x g at 4°C. The clarified supernatant was incubated on a nutator for 6 h at 4°C with 10 ml of glutathione-Sepharose (GSH) resin (Amersham) pre-washed and equilibrated with lysis buffer. After incubation the GSH resin was pelleted, the unbound supernatant was removed, and the resin was washed thrice with lysis buffer and twice with Tobacco Etch Virus (TEV) protease buffer (20 mM sodium phosphate pH 6.5, 50 mM NaCl, 2 mM DTT). The peptide was cleaved from the GSH resin by incubating in the presence of TEV protease overnight at 4°C. The next day, the supernatant was har-vested by centrifugation, and the GSH resin was washed twice with 20 mM sodium phos- […]

[1] = target: T2, proliferating cell nuclear antigen (PCNA), wild type (human, UniProt P12004 1-261); experiment: ITC; peptide (200 to 500 uM in the syringe) titrated into PCNA (20 to 50 uM monomer in the cell); 10 mM sodium phosphate pH 7.0, 10 mM NaCl, 23 °C; single binding site model; apparent Kd; conditions: both partners purified
T2 construct: human PCNA purified from E. coli; Homo-trimeric ring (88.7 kDa as printed); Human is stated for the ITC; In the functional rows PCNA is the endogenous protein of the human HEK-293 S100 extract; also called human PCNA; source: E. coli, purified
T2 sequence (P12004 whole entry): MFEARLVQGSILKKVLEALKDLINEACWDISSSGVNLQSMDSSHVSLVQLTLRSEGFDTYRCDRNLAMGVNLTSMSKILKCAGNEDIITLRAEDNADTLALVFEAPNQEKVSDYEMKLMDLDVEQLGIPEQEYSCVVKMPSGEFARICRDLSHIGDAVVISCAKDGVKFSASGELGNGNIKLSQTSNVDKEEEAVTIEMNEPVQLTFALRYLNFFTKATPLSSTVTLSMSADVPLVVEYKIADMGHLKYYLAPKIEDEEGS

mouse NIH3T3 cells = experiment: Localization of GFP-p150 relative to PCNA replication foci in mid S-phase NIH3T3 cells; format: cell-based; conditions: for localization to heterochromatin foci: DAPI staining
Source text: Cells in early S-phase show numerous small PCNA foci distributed throughout the nucleus. These foci can be resolved from each other using super-resolution microscopy but are difficult to resolve from each other by confocal microscopy. This makes protein localization to early S-phase PCNA foci difficult to assess using conventional tools for microscopy. Mid S-phase is the stage when perinuclear and peri-nucleolar chromatin are replicated. The corresponding PCNA foci are relatively large and distant from each other, making co-localization of a protein of interest with PCNA straightforward. Late S-phase is the stage when pericentric heterochromatin replicates. […] Because of these constraints, we focused our attention on cells with patterns of PCNA foci characteristic of mid S-phase. As reported in previous studies, we observed a distinct immunostaining pattern for PCNA with the monoclonal antibody PC10. During mid S-phase, staining of PCNA with PC10 occurred within foci located around the periphery of the nuclear envelope (Figure 4B, top panel, PC10). […] Asynchronously proliferating mouse NIH 3T3 cells were transduced with lentiviral vectors, and expression of wild-type and mutant forms of GFP-p150 was induced with doxycycline. Cells were fixed and permeabilized for PCNA detection with the PC10 monoclonal antibody. Mid-S phase cells were identified based upon their stereotypical pattern of PCNA staining at the nuclear periphery. […] The Pearson’s correlation coefficient of GFP WT-mp150 was 0.6, and 0.25 for the mutant GFP-p150 R426D. This is consistent with previous observations, that when CAF-1 is unable to bind to PCNA, it prematurely associates with pericentric heterochromatin in early and mid S-phase.
To study the localization of GFP CAF-1 p150 wild-type and mutants relative to that of PCNA, cDNAs encoding mouse p150 were cloned into a doxycycline-inducible lentiviral vector pCW-Cas9 plasmid encoding a TetON (minimal CMV) promoter (Addgene plasmid 50661). The Cas9 insert was replaced by wild-type or mutant mouse CAF-1 p150 using the restriction enzymes NheI and BamHI. GFP-p150 wild-type and mutant fusion proteins were excised from the EGFP-C1 vector (Clonetech) using Nhe1 and BamH1 restriction enzymes as previously reported. NheI and BamHI digested fragments were run on 0.8% agarose gel and the corresponding DNA bands: vector—pCW-Cas9 (7036 bp) and inserts—wild-type mp150, R426D (3983 bp) were gel purified using Qiagen DNA extraction spin prep columns. Purified DNAs were ligated using the Takara DNA ligase enzyme, following the manufacturer’s recommended protocol. Positive clones were selected on Luria-Bertani medium containing 100 µg/mL ampicillin, and after DNA isolation, the clones were verified by DNA sequencing. […]

T1 sequence (P12004 whole entry): as above

## KAEITDFFQKPKT [CAF-1 PIP R426D, R426D p150 PIP expressed as GST fusion with C-terminal tyrosine, TEV-cleaved and purified, used for ITC]
Human PCNA; ITC at 296 K, 10 mM Na-phosphate (pH 7.0), 10 mM NaCl, R426D
  Kd (result in words): No binding
Human PCNA; ITC, 23 °C, 10 mM sodium phosphate, pH 7.0, 10 mM NaCl
  heat exchange / binding to wild-type PCNA: did not observe any heat exchange

## IKAEKAEITRFFQKPKTPQA (also: expressed as a GST fusion) [CAF-1 PIP wild-type peptide (expressed as a GST fusion)]
[1]
  Kd: 24 µM
  dH: -1.87 kcal/mol
  stoichiometry N: 0.83

B1: GFP-p150 R426D: GFP fusion of mouse CAF-1 p150 with R426D mutation (protein, UniProt Q9QWF0 1-911, looked up, variant R426D)
Chromatin assembly factor 1 …: MLEEPEAATRTAAAVDCKDRPGFPVKRLIQARLPFKRLNLVPKEKVEEDTSPKAAVESKVPDLQLSLGTFESQCHTGSHVGLSTKLVGGQGPIDSFLRATIKPVPSVVIIDLTENCSDIPDSPEGHSELSPDTAGVVTTVEGAAKQQEHSAAELCLLETPSDITCHMEEEPGSPGDPKRTGDCQAGSLQSCPELTPGSRTCPTKELSSWSKAGDLLFIEKVPVVVLEDILATKPSIASLPMMSLDRSVTSESEILESCPEDDSILSHSSTNSSSPTSSPEGPSTPPEHRGGRSSPSTPACRVAKNFVKGSTEKGRSKLHRDREQQREEKEKLREEIRRAKEEARKKKEEEKELKEKERREKREKDEKEKAEKQRLKEEKRKERQEALEAKLEEKRKKEEEKRLREEEKRLREEEKRIKAEKAEITDFFQKPKTPQAPKTLAGSCGKFAPFEIKEHMVLAPRCRAALDQDLCDQLDQLLQQQSVASTFLSDLKSRLPLRSGPTRVCGHDTDIMNRDVVIVESSKVDGVSERKKFGRMKLLQFSENHRPAYWGTWNKKTAIIRPRNPWAQDKDLLDYEVDSDDEWEEEEPGESLSHSEGDEDDDVGEDEDEDDGFFVPHGYLSEDEGVTEECADPENHKVHQKLKAKEWDELLAKGKRFRVLQPVHVGCVWASEAANCTSSDLKLLQQFTACLLDVASPDEPEPGASRREKRDQHILAQLLPLLHGNVNGSKVIIHEFQEQCRRGLLTLPSPTPHLQMPNLEDAVAVPSKARLKRLISENSAYEKRPNFRMCWYVHPEVLKSFGQECLPVPCQWTYITTMPSAPREDSGSASTEGPGQSTPMLLKRKPAATMCITQFMKKRRYDGQVGSGDMDGFQADTEEDEEDDTDCMIIDVPDVGSDVSEAPIPAPTLCK
modifications: GFP fusion
notes: GFP fusion of mouse CAF-1 p150 with R426D mutation
Mouse NIH3T3 cells; GFP-p150 vs PCNA (PC10), mid S-phase NIH3T3 cells, doxycycline 2 µg/mL
  Pearson’s correlation coefficient: 0.25
Mouse NIH3T3 cells; mid S-phase
  localization to heterochromatin foci: anomalously found largely within the nuclear interior and the large heterochromatic foci
Mouse NIH3T3 cells; mid S-phase, listed as CAF-1 p150 R426D
  localization to heterochromatin foci: more localized to the pericentric heterochromatin
Mouse NIH3T3 cells; mid S-phase, confocal microscopy, PC10 staining
  localization to PCNA foci at nuclear periphery: did not co-localize with PCNA foci at the nuclear periphery
